Values belong to the molecule of their own block, whether it stands above or below them.
Key:
[1] = target: CgE1o (thiamine diphosphate-dependent 2-oxoglutarate dehydrogenase, OdhA), C-terminal His-tagged (Corynebacterium glutamicum) (UniProt Q8NRC3); experiment: SEC; HiLoad 26/600 Superdex 200 pg or Superose 6 10/300 GL column, TESG10N buffer; mixtures incubated on ice for 30 min before the run; masses estimated against size standards; fractions read by SDS-PAGE (CBB) or Western blot
[2] = target: CgE2-E3 subcomplex (Corynebacterium glutamicum) (UniProt Q8NNJ2)
[3] = target: CgE1p (thiamine diphosphate-dependent pyruvate dehydrogenase, AceE), C-terminal His- and Flag-tagged (Corynebacterium glutamicum) (UniProt Q8NNF6); experiment: SEC; HiLoad 26/600 Superdex 200 pg or Superose 6 10/300 GL column, TESG10N buffer; mixtures incubated on ice for 30 min before the run; masses estimated against size standards; fractions read by SDS-PAGE (CBB) or Western blot
purified protein [4] = substrate: O=C(O)CCC(=O)C(=O)O; experiment: purified protein; format: biochemical, Corynebacterium glutamicum; details: 0.2 mM CoA, 0.3 mM thiamine pyrophosphate, 3 mM L-cysteine, 5 mM MgCl2, 1 mM APAD+ (NAD+ analogue), TES-NaOH pH 7.6, 30 °C, CgE1o 20 μg with CgE2-E3 15 μg
purified protein [5] = substrate: CC(=O)C(=O)O; experiment: purified protein; format: biochemical, Corynebacterium glutamicum; details: 0.2 mM CoA, 0.3 mM thiamine pyrophosphate, 3 mM L-cysteine, 5 mM MgCl2, 1 mM APAD+ (NAD+ analogue), TES-NaOH pH 7.6, 30 °C, CgE1p 15 μg with CgE2-E3 15 μg

B1: reconstituted ODH complex (CgE1o with CgE2‐E3) (Corynebacterium glutamicum ATCC 13032) (protein)
chain: SSASTFGQNAWLVDEMFQQFQKDPKSVDKEWRELFEAQGGPNTTPATTEAQPSAPKESAKPAPKAAPAAKAAPRVETKPADKTAPKAKESSVPQQPKLPEPGQTPIRGIFKSIAKNMDISLEIPTATSVRDMPARLMFENRAMVNDQLKRTRGGKISFTHIIGYAMVKAVMAHPDMNNSYDVIDGKPTLIVPEHINLGLAIDLPQKDGSRALVVAAIKETEKMNFSEFLAAYEDIVARSRKGKLTMDDYQGVTVSLTNPGGIGTRHSVPRLTKGQGTIIGVGSMDYPAEFQGASEDRLAELGVGKLVTITSTYDHRVIQGAVSGEFLRTMSRLLTDDSFWDEIFDAMNVPYTPMRWAQDVPNTGVDKNTRVMQLIEAYRSRGHLIADTNPLSWVQPGMPVPDHRDLDIETHNLTIWDLDRTFNVGGFGGKETMTLREVLSRLRAAYTLKVGSEYTHILDRDERTWLQDRLEAGMPKPTQAEQKYILQKLNAAEAFENFLQTKYVGQKRFSLEGAEALIPLMDSAIDTAAGQGLDEVVIGMPHRGRLNVLFNIVGKPLASIFNEFEGQMEQGQIGGSGDVKYHLGSEGQHLQMFGDGEIKVSLTANPSHLEAVNPVMEGIVRAKQDYLDKGVDGKTVVPLLLHGDAAFAGLGIVPETINLAKLRGYDVGGTIHIVVNNQIGFTTTPDSSRSMHYATDYAKAFGCPVFHVNGDDPEAVVWVGQLATEYRRRFGKDVFIDLVCYRLRGHNEADDPSMTQPKMYELITGRETVRAQYTEDLLGRGDLSNEDAEAVVRDFHDQMESVFNEVKEGGKKQAEAQTGITGSQKLPHGLETNISREELLELGQAFANTPEGFNYHPRVAPVAKKRVSSVTEGGIDWAWGELLAFGSLANSGRLVRLAGEDSRRGTFTQRHAVAIDPATAEEFNPLHELAQSKGNNGKFLVYNSALTEYAGMGFEYGYSVGNEDSIVAWEAQFGDFANGAQTIIDEYVSSGEAKWGQTSKLILLLPHGYEGQGPDHSSARIERFLQLCAEGSMTVAQPSTPANHFHLLRRHALSDLKRPLVIFTPKSMLRNKAAASAPEDFTEVTKFQSVINDPNVADAAKVKKVMLVSGKLYYELAKRKEKDGRDDIAIVRIEMLHPIPFNRISEALAGYPNAEEVLFVQDEPANQGPWPFYQEHLPELIPNMPKMRRVSRRAQSSTATGVAKVHQLEEKQLIDEAFEA
notes: CgE1o C-terminal His tag, pAA62, 134,664 Da, mainly hexamer alone; CgE2 (70,905 Da, lipoylated) co-expressed with N-terminal His/Flag CgE3 (50,652 Da), pKH13; E. coli BL21-CodonPlus (DE3); tags not cut; gel-filtration purified; complex about 940 kDa; with Dihydrolipoamide acetyltransferase component of pyruvate dehydrogenase complex (E2); Dihydrolipoyl dehydrogenase (E3)
Km (purified protein [4]): 10 ± 1 µM

B2: reconstituted PDH complex (CgE1p with CgE2‐E3) (Corynebacterium glutamicum ATCC 13032) (protein)
chain: MADQAKLGGKPSDDSNFAMIRDGVASYLNDSDPEETNEWMDSLDGLLQESSPERARYLMLRLLERASAKRVSLPPMTSTDYVNTIPTSMEPEFPGDEEMEKRYRRWIRWNAAIMVHRAQRPGIGVGGHISTYAGAAPLYEVGFNHFFRGKDHPGGGDQIFFQGHASPGMYARAFMEGRLSEDDLDGFRQEVSREQGGIPSYPHPHGMKDFWEFPTVSMGLGPMDAIYQARFNRYLENRGIKDTSDQHVWAFLGDGEMDEPESRGLIQQAALNNLDNLTFVVNCNLQRLDGPVRGNTKIIQELESFFRGAGWSVIKVVWGREWDELLEKDQDGALVEIMNNTSDGDYQTFKANDGAYVREHFFGRDPRTAKLVENMTDEEIWKLPRGGHDYRKVYAAYKRALETKDRPTVILAHTIKGYGLGHNFEGRNATHQMKKLTLDDLKLFRDKQGIPITDEQLEKDPYLPPYYHPGEDAPEIKYMKERRAALGGYLPERRENYDPIQVPPLDKLRSVRKGSGKQQIATTMATVRTFKELMRDKGLADRLVPIIPDEARTFGLDSWFPTLKIYNPHGQNYVPVDHDLMLSYREAPEGQILHEGINEAGSVASFIAAGTSYATHGKAMIPLYIFYSMFGFQRTGDSIWAAADQMARGFLLGATAGRTTLTGEGLQHMDGHSPVLASTNEGVETYDPSFAYEIAHLVHRGIDRMYGPGKGEDVIYYITIYNEPTPQPAEPEGLDVEGLHKGIYLYSRGEGTGHEANILASGVGMQWALKAASILEADYGVRANIYSATSWVNLARDGAARNKAQLRNPGADAGEAFVTTQLKQTSGPYVAVSDFSTDLPNQIREWVPGDYTVLGADGFGFSDTRPAARRFFNIDAESIVVAVLNSLAREGKIDVSVAAQAAEKFKLDDPTSVSVDPNAPEE
notes: CgE1p C-terminal His (and Flag) tag, pKH4, 102,826 Da, dimer in solution; CgE2 (70,905 Da, lipoylated) co-expressed with N-terminal His/Flag CgE3 (50,652 Da), pKH13; E. coli BL21-CodonPlus (DE3); tags not cut; gel-filtration purified; with Dihydrolipoamide acetyltransferase component of pyruvate dehydrogenase complex (E2); Dihydrolipoyl dehydrogenase (E3)
Km (purified protein [5]): 3500 ± 200 µM

Further lines, results first:

stoichiometry N [1]: 6
Molecule: CgE1o (thiamine diphosphate-dependent 2-oxoglutarate dehydrogenase, OdhA), C-terminal His-tagged (from UniProt Q8NRC3 1-1221) (enzyme)

PDH activity against the amount of CgE1p (37, 150, 300, 600 pmol) with a fixed amount of CgE2-E3 (18 pmol) [2]: 150 pmol | stoichiometry N [3]: 2
Molecule: CgE1p (thiamine diphosphate-dependent pyruvate dehydrogenase, AceE), C-terminal His- and Flag-tagged (from UniProt Q8NNF6 1-922) (enzyme)
